Laboratory results taken from patent US20240325562A1, “INTERNALIZING BINDING MOLECULES” (LinXis B.V., priority 2020, published 2024).
Each block holds one molecule with its values, some of them ahead of it.

How the values were obtained:
rPDGFRB = rPDGFRB (Rattus norvegicus, UniProt Q05030); test: Competition assays of PDGFRB VHHs on rPDGFRB; format: binding; conditions: VHHs from libraries 3 and 4
Description: (§1) Biparatopic VHH constructs contain two VHH which bind to a different epitope, i.e. which are non-competitive binders. To identify (a) pair(s) of non-competitive binders, competition assays were performed. In the example shown, an Alexa fluor-conjugate of the high affine VHH 13F11 was used as the reporter VHH (13F11-A647, see example 10.2). In the assay, a non-saturating amount (10 nM) of 13F11-A647 was incubated with immobilized hIGF2R-ECD in the presence or absence of 250 nM unconjugated competitor VHH to allow competition to take place.
(§2) Similar as to in example 6.1, competition assays were performed to identify unique hPDGFRB- or rPDGFRB binders. Across 10 PDGFRB-binding VHHs obtained from libraries 1 and 2 (e.g. the VHH raised against hPDGFRB), four main groups were identified being first SP01P, SP02P, SP07P and SP13P, second SP05P, SP08P and SP10P, third SP12P and SP20P and finally SP14P. All VHH within each of the first three groups mutually competed.

hPDGFRB = hPDGFRB (Homo sapiens, UniProt P09619); test: Competition assays of PDGFRB VHHs on hPDGFRB; format: binding; conditions: IRDye800-conjugated SP26P as reporter
hPDGFRB, sequence (P09619 33-532 limits assumed): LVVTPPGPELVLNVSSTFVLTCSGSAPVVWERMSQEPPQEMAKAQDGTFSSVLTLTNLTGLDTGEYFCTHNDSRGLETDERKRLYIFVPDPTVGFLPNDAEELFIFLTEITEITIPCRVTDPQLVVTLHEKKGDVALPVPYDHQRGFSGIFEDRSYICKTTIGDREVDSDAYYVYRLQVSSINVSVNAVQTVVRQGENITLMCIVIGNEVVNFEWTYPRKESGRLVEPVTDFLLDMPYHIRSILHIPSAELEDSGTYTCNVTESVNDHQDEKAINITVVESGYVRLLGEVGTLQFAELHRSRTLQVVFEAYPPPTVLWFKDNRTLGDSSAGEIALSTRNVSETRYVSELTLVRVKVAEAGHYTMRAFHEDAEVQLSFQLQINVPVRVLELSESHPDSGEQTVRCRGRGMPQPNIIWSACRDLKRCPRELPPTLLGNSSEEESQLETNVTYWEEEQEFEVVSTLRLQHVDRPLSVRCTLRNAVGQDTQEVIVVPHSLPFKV
Description: as §1, §2
To evaluate whether the obtained VHHs would qualify as building blocks for multivalent VHH constructs that bind hPDGFRB as well as rPDGFRB (e.g. ‘species cross-reactive’ VHH constructs), competition assays were performed using the most promising VHHs SP02 (raised against hPDGFRB) and SP26P (raised against rPDGFRB).

hPDGFRB-ECD = hPDGFRB-ECD (Homo sapiens, UniProt P09619); test: Binding assay on hPDGFRB-ECD; conditions: biparatopic constructs, FIG. 15A
hPDGFRB-ECD, sequence (P09619 33-532 limits assumed): as above
Description: The 15 unique hIGF2R-binding VHH (Example 2.1, FIG. 2) were produced and purified as described in examples 3 and 4. The apparent affinities were determined through binding assay on immobilized hIGF2R-ECD. Briefly, three-fold serial dilution series, starting from 1 μM, of each VHH were plated onto hIGF2R-ECD coated plates. VHH were allowed to bind for two hours after which plates were washed. Then, bound VHH was detected using a VHH-specific IgG antibody, followed by an IRD800CW-conjugated IgG-specific antibody. Plates were read out by fluorimetry.
The 18 unique hPDGFRB binders from libraries 1 and 2, and the 11 unique rPDGFRB binders from libraries 3 and 4 (Example 2.2, FIGS. 5 and 6) were produced and purified as described in examples 3 and 4. Then, the apparent affinities were determined with binding assays on hPDGFRB-ECD and rPDGFRB-ECD, respectively, the setup described in example 5.1. Results are summarized in FIGS. 5 and 6 for the hPDGFRB and rPDGFRB VHHs, respectively.
(§3) Based on their high affinity and binding to non-overlapping hPDGRB epitopes, various biparatopic constructs were prepared based on VHHs SP02P, SP12P SP14P, SP26P and SP28P. The constructs were produced as described in example 7.1. and subjected to binding assay.
As Shown in FIG. 15C), the binding affinity of this construct for both hPDGFRB and rPDGFRB are below 5 nM. […]

[1] = target: T1, hPDGFRB (SCC-hPDGFRB cells) (Homo sapiens, UniProt P09619); test: Binding to cells transgenically expressing human PDGFRB
T1 construct: SCC VII cells transgenically expressing full-length human PDGFRB (SCC-hPDGFRB); expressed in transfected cells; host or cells: murine SCC VII cells
T1 sequence (P09619 33-1106): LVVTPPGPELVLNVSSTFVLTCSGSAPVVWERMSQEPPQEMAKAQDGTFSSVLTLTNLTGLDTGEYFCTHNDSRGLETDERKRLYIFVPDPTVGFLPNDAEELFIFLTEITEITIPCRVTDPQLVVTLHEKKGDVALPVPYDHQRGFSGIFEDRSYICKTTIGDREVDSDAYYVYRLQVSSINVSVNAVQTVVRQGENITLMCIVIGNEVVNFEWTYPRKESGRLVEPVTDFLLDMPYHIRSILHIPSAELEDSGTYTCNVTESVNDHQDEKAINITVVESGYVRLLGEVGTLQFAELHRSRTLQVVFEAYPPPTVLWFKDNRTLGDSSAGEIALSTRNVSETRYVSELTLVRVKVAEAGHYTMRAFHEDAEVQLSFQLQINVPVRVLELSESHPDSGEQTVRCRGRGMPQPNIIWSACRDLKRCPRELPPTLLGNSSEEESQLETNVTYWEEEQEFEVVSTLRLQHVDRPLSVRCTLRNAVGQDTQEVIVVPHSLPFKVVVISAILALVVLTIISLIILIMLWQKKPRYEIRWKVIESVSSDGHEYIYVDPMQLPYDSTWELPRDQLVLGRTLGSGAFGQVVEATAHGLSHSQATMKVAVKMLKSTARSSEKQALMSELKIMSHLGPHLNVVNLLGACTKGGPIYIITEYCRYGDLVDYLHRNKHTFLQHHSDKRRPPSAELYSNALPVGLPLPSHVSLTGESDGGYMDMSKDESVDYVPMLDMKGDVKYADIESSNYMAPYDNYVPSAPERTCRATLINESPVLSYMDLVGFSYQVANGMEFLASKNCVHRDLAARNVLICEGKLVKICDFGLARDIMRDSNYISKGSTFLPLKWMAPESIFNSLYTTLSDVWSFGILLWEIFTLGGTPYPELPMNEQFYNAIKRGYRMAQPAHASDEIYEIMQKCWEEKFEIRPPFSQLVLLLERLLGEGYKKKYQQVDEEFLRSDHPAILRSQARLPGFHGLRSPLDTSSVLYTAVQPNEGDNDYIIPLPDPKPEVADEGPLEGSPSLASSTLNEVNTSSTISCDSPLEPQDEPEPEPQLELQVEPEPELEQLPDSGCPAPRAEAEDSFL
Description: (§4) High affine binders to hPDGFRB-ECD or rPDGFRB-ECD were subsequently assessed for binding to SCC VII cells transfected with hPDGFRB and rPDGFRB, respectively.
as §3
(§5) As Shown in FIG. 15C), the binding affinity of this construct for both hPDGFRB and rPDGFRB are below 5 nM. […] These observations make SP02P (or similar VHH) and SP26P (or similar VHH) particularly promising for use in the present invention.

[2] = target: T2, rPDGFRB (SCC-rPDGFRB cells) (Rattus norvegicus, UniProt Q05030); test: Binding to cells transgenically expressing rat PDGFRB
T2 construct: SCC VII cells transgenically expressing full-length rat PDGFRB (SCC-rPDGFRB); expressed in transfected cells; host or cells: murine SCC VII cells
T2 sequence (Q05030 32-1097): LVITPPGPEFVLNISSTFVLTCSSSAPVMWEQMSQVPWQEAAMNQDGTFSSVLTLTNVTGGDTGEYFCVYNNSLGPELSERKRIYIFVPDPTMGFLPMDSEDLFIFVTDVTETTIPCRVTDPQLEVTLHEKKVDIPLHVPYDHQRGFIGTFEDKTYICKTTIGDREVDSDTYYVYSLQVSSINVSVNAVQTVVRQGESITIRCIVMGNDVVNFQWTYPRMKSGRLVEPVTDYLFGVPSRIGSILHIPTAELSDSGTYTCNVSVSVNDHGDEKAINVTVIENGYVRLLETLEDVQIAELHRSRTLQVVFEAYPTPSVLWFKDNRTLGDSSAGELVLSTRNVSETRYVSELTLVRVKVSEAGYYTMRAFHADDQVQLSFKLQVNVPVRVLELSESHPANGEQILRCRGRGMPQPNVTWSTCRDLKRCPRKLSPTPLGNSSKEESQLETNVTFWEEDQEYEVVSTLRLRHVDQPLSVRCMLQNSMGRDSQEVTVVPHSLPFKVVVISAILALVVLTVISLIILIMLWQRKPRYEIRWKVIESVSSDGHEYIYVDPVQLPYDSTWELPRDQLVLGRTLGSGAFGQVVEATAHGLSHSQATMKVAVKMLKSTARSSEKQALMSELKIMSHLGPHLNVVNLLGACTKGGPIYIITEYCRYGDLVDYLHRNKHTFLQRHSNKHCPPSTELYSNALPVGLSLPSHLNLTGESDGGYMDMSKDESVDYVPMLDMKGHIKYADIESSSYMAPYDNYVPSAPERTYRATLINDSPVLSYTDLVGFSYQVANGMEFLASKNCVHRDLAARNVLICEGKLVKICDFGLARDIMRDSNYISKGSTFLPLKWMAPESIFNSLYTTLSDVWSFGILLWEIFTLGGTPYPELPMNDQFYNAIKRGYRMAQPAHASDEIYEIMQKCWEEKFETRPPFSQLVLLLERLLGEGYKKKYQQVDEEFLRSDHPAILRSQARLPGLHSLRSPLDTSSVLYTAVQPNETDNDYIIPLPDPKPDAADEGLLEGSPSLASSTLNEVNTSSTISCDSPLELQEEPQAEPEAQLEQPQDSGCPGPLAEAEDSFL
Description: as §4, §3, §5

[3] = In vivo pharmacokinetics in rats, serum ELISA on hIGF2R-ECD; design: species or system Sprague-Dawley rats
Description: (§6) The in vivo pharmacokinetic properties of 13F11-13E8-ABD (F11E8-ABD; with ABD) and 13F11-13E8 (F11E8; without ABD) were compared in healthy Sprague-Dawley rats. In brief, rats were dosed intravenously with approximately 3 mg/kg body weight and blood samples were taken at different time points and the concentration of the VHH constructs were determined using an ELISA on immobilized hIGF2R-ECD. […] To further confirm the functionality of the ABD, biodistribution of F11E8-ABD and F11E8 were assessed by means of Positron Emission Tomography (PET). In brief, the constructs were radio-labelled with the positron emitter ^89Zr-desferral according to Verel et al (J Nucl Med. 2003; 44:1271-1281), and administered intravenously to rats after which biodistribution was assessed on subsequent time points by whole-body PET.

[4] = Biodistribution by whole-body PET of 89Zr-labelled constructs; format: in vivo; conditions: 89Zr-desferral labelled, i.v., rats
Description: as §6

[5] = tested on: primary activated rat hepatic stellate cells (HSCs); test: Binding to primary activated rat hepatic stellate cells; format: cell-based; conditions: Alexa Fluor 488 conjugate; HSCs from BDL rat, 6 days in culture
Description: The cross-reactivity of F11-E8-ABD was further evaluated in binding experiments to primary activated rat hepatic stellate cells (HSCs). For this, the construct was conjugated to Alexa Fluor 488 according to the methods described in example 10.2. Activated HSCs were obtained from a perfused liver of a cirrhotic bile duct ligated (BDL) rat through density gradient centrifugation. Cells were kept in culture for 6 days to allow complete activation. […] Simultaneously, binding of the VHH construct to the activated cells was evident, further confirming species cross-reactivity of the construct.

rPDGFRB, sequence (Q05030 32-1097): as above

epitope compared to SP27P, SP28P, SP30P, SP31P and SP36P (rPDGFRB): unique epitope
competition between SP02 and SP26P (hPDGFRB): did not compete
B1: SP26P: VHH single domain antibody targeting PDGFRB, SEQ ID NO: 153 (protein)
VHH: EVQLVESGGGLVQAGGSLRLSCAASGRSFSSSVMGWFRQTPGKEREFVAATRWTAASTHYADSVKGRFTISRDHAENAVFLQMNSLKPEDTAVYYCAAGNYLDTAQYRYNYWGQGTQVTVSS

affinity for hPDGFRB (hPDGFRB-ECD): lowest affinity
affinity for hPDGFRB on cells [1]: low affinity
affinity for rPDGFRB on cells [2]: high affinity
B2: SP26P-SP28P: biparatopic construct based on VHH raised against rPDGFRB (protein)
chain: EVQLVESGGGLVQAGGSLRLSCAASGSIVSFNGINWYRQAPGKQREWVGGITQGGNTMYADSVRGRFTISRDNTKNTMYLQMNSLKPEDTAVYYCRRPPVASWGQGTQVTVSSGGGGSGGGGSGGGGSEVQLVESGGGLVQAGGSLRLSCAASGRSFSSSVMGWFRQTPGKEREFVAATRWTAASTHYADSVKGRFTISRDHAENAVFLQMNSLKPEDTAVYYCAAGNYLDTAQYRYNYWGQGTQVTVSS
modifications: left off: small tags and cut ends
notes: biparatopic construct based on VHH raised against rPDGFRB

B3: 13F11-13E8-ABD: 13F11-13E8 re-engineered to include an albumin binding domain (ABD) as half-life extender (protein)
chain: EVQLVESGGRLVQPGDSLRLSCAASGRTFSDNAMGWFRQAPGKERRFVAGISWAGGSTYYSDSVKGRFTISRDNAKNTVYLQMNSLKPEDTAVYYCAAGLRAWVQRMPKDYNYWGQGTQVTVSSGGGGSGGGGSGGGGSEVQLVESGGGLVQAGGSLRLSCAASRSISPMGWYRQAPGKQRELVAIMPSSGPPIYADSVQGRFTISRDNAKNTVYLQMNSLKPEDTAVYYCNVGGGYWGQGTQVTVSS
modifications: left off: large carriers; small tags and cut ends
infused dose still in circulation ([3]; one hour after dosing, approximately 20 nmoles infused, estimated serum volume 10 mL): approximately 50%
Cmax ([3]; rats, i.v., approximately 3 mg/kg, read-out: peak serum level (Cmax)): > 1000 nM
biodistribution (PET) [4]: accumulate in the liver
binding to activated HSCs [5]: evident
